Data on two substances can be found in PMC9256654, “Mechanistic basis for maintenance of CHG DNA methylation in plants” (Nature Communications, 2022).

Experiment [1] addresses Zea mays ZMET2 (residues 130-912), core fragment harboring the CD, BAH and MTase domains (Zea mays) (UniProt Q9AXT8).
The target of experiment [2] is A. thaliana CMT3 (residues 42-839) (A. thaliana) (UniProt Q94F88).
In experiment [3] the target is Zea mays ZMET2 (residues 130-912), core fragment harboring the CD, BAH and MTase domains (Zea mays) (UniProt Q9AXT8). The source holds these as a separate data set.
Chain of Zea mays ZMET2 (residues 130-912), core fragment harboring the CD, BAH and MTase domains (Zea mays) (Q9AXT8 130-912): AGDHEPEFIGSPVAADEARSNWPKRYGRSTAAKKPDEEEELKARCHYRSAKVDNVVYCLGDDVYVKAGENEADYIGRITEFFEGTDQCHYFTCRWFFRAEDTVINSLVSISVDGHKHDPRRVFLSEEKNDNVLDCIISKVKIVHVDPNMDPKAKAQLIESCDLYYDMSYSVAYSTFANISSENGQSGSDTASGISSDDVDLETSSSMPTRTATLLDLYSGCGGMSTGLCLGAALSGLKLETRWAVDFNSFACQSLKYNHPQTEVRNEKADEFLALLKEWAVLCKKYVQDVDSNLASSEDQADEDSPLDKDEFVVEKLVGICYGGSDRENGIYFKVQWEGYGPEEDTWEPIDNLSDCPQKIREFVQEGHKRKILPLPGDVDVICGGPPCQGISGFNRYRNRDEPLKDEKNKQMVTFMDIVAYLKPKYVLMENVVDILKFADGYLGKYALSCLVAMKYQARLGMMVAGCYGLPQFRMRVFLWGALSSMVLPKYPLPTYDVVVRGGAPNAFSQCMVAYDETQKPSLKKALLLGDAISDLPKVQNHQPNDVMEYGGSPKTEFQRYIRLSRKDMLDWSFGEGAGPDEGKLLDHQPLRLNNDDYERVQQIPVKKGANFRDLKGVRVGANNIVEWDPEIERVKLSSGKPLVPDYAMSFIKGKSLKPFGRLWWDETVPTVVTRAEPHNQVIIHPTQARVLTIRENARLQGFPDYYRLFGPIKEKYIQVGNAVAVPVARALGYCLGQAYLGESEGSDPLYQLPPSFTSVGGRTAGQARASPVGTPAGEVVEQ

Chain of A. thaliana CMT3 (residues 42-839) (A. thaliana) (Q94F88 42-839): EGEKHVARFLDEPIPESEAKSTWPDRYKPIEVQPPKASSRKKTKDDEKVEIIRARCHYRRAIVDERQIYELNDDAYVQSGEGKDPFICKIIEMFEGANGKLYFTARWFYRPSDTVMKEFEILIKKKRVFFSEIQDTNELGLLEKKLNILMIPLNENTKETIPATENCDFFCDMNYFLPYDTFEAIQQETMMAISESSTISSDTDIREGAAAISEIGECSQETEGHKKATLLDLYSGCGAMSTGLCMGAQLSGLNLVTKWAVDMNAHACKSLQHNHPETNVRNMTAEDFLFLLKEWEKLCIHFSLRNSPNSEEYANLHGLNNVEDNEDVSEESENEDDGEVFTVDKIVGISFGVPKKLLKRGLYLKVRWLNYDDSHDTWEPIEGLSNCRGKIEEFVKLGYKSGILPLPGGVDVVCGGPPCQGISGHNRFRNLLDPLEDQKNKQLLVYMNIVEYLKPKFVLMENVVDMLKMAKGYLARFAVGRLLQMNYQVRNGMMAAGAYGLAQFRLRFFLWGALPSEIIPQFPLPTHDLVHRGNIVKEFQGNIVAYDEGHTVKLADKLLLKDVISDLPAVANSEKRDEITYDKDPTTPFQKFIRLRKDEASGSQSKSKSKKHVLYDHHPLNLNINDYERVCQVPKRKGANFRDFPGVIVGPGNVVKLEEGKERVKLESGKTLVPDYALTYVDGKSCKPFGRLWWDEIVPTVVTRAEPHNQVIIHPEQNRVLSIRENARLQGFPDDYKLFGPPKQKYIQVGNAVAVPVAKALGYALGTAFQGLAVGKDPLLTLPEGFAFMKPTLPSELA

In experiment [1], “histone H3K9me2 peptide encompassing residues 1-32, followed by a C-terminal tyrosine (from UniProt P68431 2-33)” registered an in vitro DNA methylation activity of ZMET2 on hmCHG DNA, fold stimulation by the peptide of 15 fold and an in vitro DNA methylation activity of ZMET2 on unmodified CAG DNA, fold stimulation by the peptide of 6 fold.

Substance “histone H3K9me2K18ac peptide residues 1-32, followed by a C-terminal tyrosine (from UniProt P68431 2-33)” yielded an in vitro DNA methylation activity of CMT3, reduction of the enzymatic stimulation against H3 (1–32)K9me2 in experiment [2] of more than 3 fold. This substance also came in with an in vitro DNA methylation activity of ZMET2, reduction of the enzymatic stimulation against H3 (1–32)K9me2 in experiment [3] of more than 3 fold.
